In article PMC11342145:
Values belong to the substance of their own block, whether it stands above or below them.

Key:
Grb2 [1] = target: Grb2 (UniProt Q60631); test: fragment affinity purification, western blot; details: reference: YYYS fragment; sites Y239,Y240
Pik3r1 [2] = target: Pik3r1 (UniProt P26450); test: fragment affinity purification, western blot
Arhgef5 = Arhgef5 (UniProt E9Q7D5); test: fragment AP-MS, label-free quantification; details: reference: YYYS fragment; sites Y239,Y240
Grb2 [3] = target: Grb2 (UniProt Q60631); test: fragment AP-MS, label-free quantification; details: reference: YYYS fragment; sites Y239,Y240
Grb7 = Grb7 (UniProt Q03160); test: fragment AP-MS, label-free quantification; details: reference: YYYS fragment
Pik3r1 [4] = target: Pik3r1 (UniProt P26450); test: fragment AP-MS, label-free quantification
Plcg1 [5] = target: Plcg1 (UniProt Q62077); test: fragment affinity purification, western blot; details: reference: pYpYYS fragment; sites Y313,S335
Ubash3b (Sts1) [6] = target: Ubash3b (Sts1) (UniProt Q8BGG7); test: fragment affinity purification, western blot; details: reference: pYpYYS fragment; sites Y313,S335
Plcg1 [7] = target: Plcg1 (UniProt Q62077); test: fragment AP-MS, label-free quantification
Ubash3b (Sts1) [8] = target: Ubash3b (Sts1) (UniProt Q8BGG7); test: fragment AP-MS, label-free quantification
[9] = reference: YYYS fragment, sites Y239,Y240
[10] = reference: pYpYYS fragment, sites Y313,S335
[11] = reference: YYYS fragment, sites Y239,Y240,Y313,S335

Sequence of UniProt P26450 (P26450 whole entry, looked up, the tested form may be a part): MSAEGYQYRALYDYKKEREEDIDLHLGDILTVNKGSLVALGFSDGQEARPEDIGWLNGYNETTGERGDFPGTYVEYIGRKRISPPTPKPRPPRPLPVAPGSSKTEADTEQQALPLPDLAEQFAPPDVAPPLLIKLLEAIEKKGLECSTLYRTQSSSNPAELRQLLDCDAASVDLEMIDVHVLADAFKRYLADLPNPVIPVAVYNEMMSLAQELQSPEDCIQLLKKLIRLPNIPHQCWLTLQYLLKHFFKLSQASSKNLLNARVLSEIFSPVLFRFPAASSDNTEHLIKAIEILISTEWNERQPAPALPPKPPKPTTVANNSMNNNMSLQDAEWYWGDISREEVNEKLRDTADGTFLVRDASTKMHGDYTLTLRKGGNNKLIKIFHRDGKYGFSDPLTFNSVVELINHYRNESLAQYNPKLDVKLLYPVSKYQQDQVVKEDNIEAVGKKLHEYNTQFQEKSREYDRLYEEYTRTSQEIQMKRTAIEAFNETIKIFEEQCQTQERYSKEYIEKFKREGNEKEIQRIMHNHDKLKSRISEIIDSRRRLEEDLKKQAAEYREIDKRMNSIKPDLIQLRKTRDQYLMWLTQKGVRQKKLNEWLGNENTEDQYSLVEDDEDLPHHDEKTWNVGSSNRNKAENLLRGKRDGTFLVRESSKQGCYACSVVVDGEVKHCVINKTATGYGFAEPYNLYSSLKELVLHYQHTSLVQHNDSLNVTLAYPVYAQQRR
Sequence of UniProt Q62077 (Q62077 whole entry, looked up, the tested form may be a part): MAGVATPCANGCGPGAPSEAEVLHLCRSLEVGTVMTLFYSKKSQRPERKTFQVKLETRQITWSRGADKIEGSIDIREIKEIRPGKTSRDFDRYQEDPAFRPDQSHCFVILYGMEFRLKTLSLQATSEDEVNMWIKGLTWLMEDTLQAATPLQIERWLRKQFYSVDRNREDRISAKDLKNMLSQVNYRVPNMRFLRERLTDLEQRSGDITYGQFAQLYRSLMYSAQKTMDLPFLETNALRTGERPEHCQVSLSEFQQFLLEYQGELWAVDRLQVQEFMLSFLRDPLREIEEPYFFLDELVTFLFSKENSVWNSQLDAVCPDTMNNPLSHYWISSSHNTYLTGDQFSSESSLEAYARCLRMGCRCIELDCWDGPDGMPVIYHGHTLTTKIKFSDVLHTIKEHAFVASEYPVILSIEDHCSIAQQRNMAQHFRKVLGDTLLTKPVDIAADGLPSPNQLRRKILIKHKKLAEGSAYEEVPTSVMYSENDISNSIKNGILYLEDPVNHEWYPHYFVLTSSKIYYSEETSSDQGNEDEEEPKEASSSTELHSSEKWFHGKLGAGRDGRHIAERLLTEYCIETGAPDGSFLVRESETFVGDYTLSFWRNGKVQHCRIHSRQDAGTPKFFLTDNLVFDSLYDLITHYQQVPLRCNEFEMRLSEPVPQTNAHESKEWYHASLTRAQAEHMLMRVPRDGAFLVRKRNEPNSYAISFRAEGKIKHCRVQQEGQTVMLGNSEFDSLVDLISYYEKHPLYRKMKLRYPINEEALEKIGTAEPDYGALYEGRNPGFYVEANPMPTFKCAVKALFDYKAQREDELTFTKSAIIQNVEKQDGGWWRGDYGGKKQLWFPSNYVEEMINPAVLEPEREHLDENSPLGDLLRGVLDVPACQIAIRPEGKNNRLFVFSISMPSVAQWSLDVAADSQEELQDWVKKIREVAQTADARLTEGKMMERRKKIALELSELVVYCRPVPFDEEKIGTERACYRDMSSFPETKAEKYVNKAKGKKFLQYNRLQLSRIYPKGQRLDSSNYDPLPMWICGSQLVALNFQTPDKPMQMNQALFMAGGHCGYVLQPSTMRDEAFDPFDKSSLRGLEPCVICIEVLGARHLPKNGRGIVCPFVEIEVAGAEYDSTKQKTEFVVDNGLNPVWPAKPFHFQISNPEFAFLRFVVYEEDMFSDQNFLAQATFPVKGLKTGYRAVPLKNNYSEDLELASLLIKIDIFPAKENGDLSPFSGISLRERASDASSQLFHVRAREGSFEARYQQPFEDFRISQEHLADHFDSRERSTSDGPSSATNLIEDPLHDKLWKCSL
Sequence of UniProt Q8BGG7 (Q8BGG7 whole entry, looked up, the tested form may be a part): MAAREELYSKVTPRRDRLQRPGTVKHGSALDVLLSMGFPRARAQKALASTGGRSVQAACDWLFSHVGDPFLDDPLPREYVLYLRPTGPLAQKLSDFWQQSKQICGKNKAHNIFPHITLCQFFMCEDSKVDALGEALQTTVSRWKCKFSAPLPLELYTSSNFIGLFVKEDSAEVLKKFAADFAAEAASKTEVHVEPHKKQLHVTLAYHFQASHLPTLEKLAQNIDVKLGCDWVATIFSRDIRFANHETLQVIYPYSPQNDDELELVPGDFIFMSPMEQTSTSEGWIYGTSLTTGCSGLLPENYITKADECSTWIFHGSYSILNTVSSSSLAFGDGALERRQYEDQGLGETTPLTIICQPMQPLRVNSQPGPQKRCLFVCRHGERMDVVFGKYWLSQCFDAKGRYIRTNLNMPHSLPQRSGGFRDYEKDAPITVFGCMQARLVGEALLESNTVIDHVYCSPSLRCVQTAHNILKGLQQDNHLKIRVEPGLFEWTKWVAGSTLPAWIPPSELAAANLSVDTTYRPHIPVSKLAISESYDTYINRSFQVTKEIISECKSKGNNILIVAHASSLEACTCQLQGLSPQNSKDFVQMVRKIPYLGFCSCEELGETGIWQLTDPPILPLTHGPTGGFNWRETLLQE
Sequence of UniProt Q03160 (Q03160 whole entry, looked up, the tested form may be a part): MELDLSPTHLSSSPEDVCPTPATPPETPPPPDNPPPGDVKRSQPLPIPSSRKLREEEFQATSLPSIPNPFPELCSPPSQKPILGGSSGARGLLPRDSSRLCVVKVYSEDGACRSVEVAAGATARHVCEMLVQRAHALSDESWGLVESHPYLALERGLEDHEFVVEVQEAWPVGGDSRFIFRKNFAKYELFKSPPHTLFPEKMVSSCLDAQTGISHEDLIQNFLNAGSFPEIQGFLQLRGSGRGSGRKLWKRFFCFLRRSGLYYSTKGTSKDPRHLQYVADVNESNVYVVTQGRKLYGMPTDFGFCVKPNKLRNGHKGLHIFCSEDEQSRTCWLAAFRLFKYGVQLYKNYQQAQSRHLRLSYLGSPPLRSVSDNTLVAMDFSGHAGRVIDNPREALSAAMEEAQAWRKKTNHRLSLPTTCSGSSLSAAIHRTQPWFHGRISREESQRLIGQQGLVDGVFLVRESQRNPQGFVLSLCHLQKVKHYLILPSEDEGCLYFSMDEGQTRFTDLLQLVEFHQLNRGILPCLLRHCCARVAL
Sequence of UniProt E9Q7D5 (E9Q7D5 whole entry, looked up, the tested form may be a part): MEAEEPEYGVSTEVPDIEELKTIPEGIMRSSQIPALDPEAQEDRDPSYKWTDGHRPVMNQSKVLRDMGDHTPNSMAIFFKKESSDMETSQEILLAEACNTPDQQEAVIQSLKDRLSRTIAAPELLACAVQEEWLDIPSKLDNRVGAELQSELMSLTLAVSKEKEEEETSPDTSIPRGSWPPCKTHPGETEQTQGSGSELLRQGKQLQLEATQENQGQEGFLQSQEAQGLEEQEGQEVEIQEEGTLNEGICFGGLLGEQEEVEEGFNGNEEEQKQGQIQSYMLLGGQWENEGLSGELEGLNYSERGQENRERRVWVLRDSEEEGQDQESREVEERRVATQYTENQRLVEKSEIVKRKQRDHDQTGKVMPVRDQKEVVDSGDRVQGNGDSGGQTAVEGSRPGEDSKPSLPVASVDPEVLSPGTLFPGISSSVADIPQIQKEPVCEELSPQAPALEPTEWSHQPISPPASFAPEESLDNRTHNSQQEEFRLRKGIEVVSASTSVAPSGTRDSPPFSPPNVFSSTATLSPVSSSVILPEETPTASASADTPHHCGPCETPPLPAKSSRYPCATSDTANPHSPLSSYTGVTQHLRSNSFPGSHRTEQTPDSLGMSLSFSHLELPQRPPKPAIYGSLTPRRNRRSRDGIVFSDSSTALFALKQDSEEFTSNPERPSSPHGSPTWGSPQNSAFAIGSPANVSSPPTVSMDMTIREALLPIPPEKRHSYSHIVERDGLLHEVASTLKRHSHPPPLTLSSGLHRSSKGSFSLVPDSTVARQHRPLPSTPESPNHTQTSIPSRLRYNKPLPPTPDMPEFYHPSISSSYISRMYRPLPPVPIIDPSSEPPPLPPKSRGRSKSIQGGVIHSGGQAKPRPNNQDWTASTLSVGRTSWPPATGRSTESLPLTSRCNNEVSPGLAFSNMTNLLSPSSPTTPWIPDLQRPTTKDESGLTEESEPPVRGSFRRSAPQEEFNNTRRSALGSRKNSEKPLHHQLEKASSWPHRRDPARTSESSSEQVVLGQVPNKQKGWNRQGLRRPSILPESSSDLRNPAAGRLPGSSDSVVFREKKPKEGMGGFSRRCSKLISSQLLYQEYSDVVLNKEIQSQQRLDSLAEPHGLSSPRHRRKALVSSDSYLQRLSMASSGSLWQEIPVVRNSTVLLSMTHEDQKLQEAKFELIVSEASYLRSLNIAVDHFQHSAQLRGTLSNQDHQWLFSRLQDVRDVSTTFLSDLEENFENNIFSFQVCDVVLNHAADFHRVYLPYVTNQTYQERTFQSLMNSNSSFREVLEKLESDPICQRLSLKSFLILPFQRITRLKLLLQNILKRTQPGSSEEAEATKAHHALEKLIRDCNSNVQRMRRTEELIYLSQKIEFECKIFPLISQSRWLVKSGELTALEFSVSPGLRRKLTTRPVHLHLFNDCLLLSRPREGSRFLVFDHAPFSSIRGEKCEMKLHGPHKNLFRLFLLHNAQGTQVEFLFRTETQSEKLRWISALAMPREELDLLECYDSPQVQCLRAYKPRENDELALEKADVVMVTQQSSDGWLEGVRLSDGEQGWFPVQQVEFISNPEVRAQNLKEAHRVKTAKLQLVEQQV

binding against the reference (Grb2 [1]): stronger
binding against the reference (Pik3r1 [2]; [9]): stronger
binding against the reference (Arhgef5): stronger
binding against the reference (Grb2 [3]): stronger
binding against the reference (Grb7; sites Y239,Y240): stronger
binding against the reference (Pik3r1 [4]; [9]): stronger
Substance: Shc1 (p52Shc1) CH1 region, 107 residues (from UniProt P98083-2) pYpYYS fragment

binding against the reference (Pik3r1 [2]; [10]): stronger
binding against the reference (Plcg1 [5]): stronger
binding against the reference (Ubash3b (Sts1) [6]): stronger
binding against the reference (Pik3r1 [4]; [10]): stronger
binding against the reference (Plcg1 [7]; [11]): stronger
binding against the reference (Plcg1 [7]; [10]): stronger
binding against the reference (Ubash3b (Sts1) [8]; [11]): stronger
binding against the reference (Ubash3b (Sts1) [8]; [10]): stronger
Substance: Shc1 (p52Shc1) CH1 region, 107 residues (from UniProt P98083-2) pYpYpYpS fragment

binding against the reference (Grb7; sites Y239): stronger
Substance: Shc1 (p52Shc1) CH1 region, 107 residues (from UniProt P98083-2) pYYYS fragment
